Measured values as given in patent US20080207488A1, “Method for Detecting Peptides Comprising a Cross-B Structure” (priority 2005, published 2008).
Blank lines part the entries; values can stand above or below the substance they belong to.

Experiments:
U937 monocytes = assay: TNFα RNA upregulation in U937 monocytes (RT-PCR); type: cell-based, human; details: 1 h stimulation; 100 μg ml^−1 amyloid endostatin, 260 μg ml^−1 Hb-AGE; LPS 1 μg ml^−1; normalized to 18S
Protocol: U937 monocytes were cultured in six-wells plates. Cells were stimulated with buffer (negative control), 1 μg ml^−1 LPS (positive control), 100 μg ml^−1 amyloid endostatin^1,7, 260 μg ml^−1 Hb-AGE and 260 μg ml^−1 control Hb. After 1 h of stimulation, cells were put on ice. After washing RNA was isolated and quantified spectrophotometrically. Normalized amounts of RNA were used for 26 cycli of RT-PCR with human TNFα primer and 18 cycli of RT-PCR with ribosomal 18S primer for normalization purposes. DNA was analyzed on a 2% agarose gel.

tPA = target: T1, tPA (Homo sapiens, UniProt P00750); assay: tPA ELISA with proteins pre-incubated with DXS500k; type: binding
T1 construct: purchased Boehringer-Ingelheim (Actilyse, Alteplase)
T1 sequence (P00750 36-562): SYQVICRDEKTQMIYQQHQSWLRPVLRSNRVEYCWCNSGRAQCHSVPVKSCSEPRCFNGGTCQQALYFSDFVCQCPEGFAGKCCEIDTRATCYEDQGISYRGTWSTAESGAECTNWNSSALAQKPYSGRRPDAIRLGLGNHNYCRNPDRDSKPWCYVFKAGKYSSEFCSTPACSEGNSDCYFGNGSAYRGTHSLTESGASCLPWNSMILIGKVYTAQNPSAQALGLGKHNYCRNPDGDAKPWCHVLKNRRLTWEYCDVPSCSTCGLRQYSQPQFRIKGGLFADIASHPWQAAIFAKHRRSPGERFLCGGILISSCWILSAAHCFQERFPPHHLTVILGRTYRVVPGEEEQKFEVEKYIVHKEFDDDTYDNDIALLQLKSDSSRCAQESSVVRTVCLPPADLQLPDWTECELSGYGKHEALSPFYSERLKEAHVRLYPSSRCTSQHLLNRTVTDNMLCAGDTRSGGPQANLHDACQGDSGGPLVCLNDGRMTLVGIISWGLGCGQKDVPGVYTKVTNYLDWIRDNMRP

factor XII = target: T2, factor XII (Homo sapiens, UniProt P00748); assay: Factor XII auto-activation assay with substrate S-2222; type: biochemical; details: purified factor XII, 100 μg ml^−1 FP13 K157G, 10 μg ml^−1 Aβ(1-40) E22Q, 10 μg ml^−1 Hb-AGE, DXS500k 1 μg ml^−1 as comparator
T2 construct: purchased Calbiochem, EMD Biosciences #233490
T2 sequence (P00748 20-615): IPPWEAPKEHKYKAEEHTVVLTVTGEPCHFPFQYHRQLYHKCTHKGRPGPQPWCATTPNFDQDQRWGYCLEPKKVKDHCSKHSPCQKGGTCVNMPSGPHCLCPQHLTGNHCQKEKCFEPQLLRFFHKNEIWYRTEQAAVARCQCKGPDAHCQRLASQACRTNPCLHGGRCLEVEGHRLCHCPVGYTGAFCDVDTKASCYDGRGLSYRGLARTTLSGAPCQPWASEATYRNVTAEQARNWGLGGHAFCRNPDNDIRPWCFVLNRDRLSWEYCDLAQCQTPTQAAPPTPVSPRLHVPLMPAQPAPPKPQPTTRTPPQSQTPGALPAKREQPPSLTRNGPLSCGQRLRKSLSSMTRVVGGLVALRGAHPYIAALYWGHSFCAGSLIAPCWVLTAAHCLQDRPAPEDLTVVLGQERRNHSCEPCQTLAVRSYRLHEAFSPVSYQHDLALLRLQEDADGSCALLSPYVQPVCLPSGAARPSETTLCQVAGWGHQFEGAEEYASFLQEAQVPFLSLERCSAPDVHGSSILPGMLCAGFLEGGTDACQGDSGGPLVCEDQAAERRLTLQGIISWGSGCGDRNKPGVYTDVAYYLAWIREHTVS
Protocol: Plasmin (Pls) activity was assayed as described^7. Peptides and proteins that were tested for their stimulatory ability were regularly used at 100 μg ml^−1. […] Chromogenic substrate S-2251 (Chromogenix, Instrumentation Laboratory SpA, Milano, Italy) was used to measure Pls activity. Conversion of zymogen factor XII (#233490, Calbiochem, EMD Biosciences, Inc., San Diego, Calif.) to proteolytically active factor XII (factor XIIa) was assayed by measurement of the conversion of chromogenic substrate Chromozym-PK (Roche Diagnostics, Almere, The Netherlands) by kallikrein. Chromozym-PK was used at a concentration of 0.3 mM. Factor XII, human plasma prekallikrein (#529583, Calbiochem) and human plasma cofactor high-molecular weight kininogen (#422686, Calbiochem) were used at concentrations of 1 μg ml^−1. […] Assays were performed using microtiter plates (Costar, Cambridge, Mass., USA). […] The conversion of Chromozym-PK was recorded kinetically at 37° C. for at least 60 minutes. […] With S-2222, activation of factor XII in plasma was measured, using 60% v/v plasma, diluted with substrate and H2O with or without potential cofactor. Furthermore, auto-activation of factor XII was measured by incubating 53 μg ml^−1 purified factor XII in 50 mM Tris-HCl buffer pH 7.5 with 1 mM EDTA and 0.001% v/v Triton-X100, with S-2222 and H2O with or without potential cofactor.

Substance: Hb-AGE: human haemoglobin incubated 32 weeks at 37° C. with glucose-6-phosphate
TNFα RNA expression when compared to LPS (U937 monocytes): approximately 30%

tPA binding to protein pre-incubated overnight with DXS500k (tPA): binds specifically
Substance: factor XII: zymogen factor XII (Calbiochem), here pre-incubated with DXS500k

Substance: freshly dissolved FP13 K157G: FP13 K157G peptide freshly dissolved, not aggregated (KRLEVDIDIGIRS)
potency to induce factor XII auto-activation (factor XII): did not or hardly auto-activate factor XII
